Experimental data: US20170209564A1

Tests used:
Details in all cases: remark: other sources report otherwise
[1] = target: T1, H1-mini2-cluster1+5+6-GCN4 without leader sequence and with FLAG-thrombin-foldon-HIS; assay: ELISA signal over HTRF expression signal, HEK293F; average of the parental
7A7 [2] = assay: ELISA, coated CR6261, HEK293F medium
86B4 = assay: ELISA, coated CR6261, HEK293F medium
6E12 = assay: ELISA, coated CR6261, HEK293F medium
115A1 = assay: ELISA, coated CR6261, HEK293F medium
181H9 = assay: ELISA, coated CR6261, HEK293F medium
171E5 = assay: ELISA, coated CR6261, HEK293F medium
91C4 = assay: ELISA, coated CR6261, HEK293F medium
127H1 = assay: ELISA, coated CR6261, HEK293F medium
131B5 = assay: ELISA, coated CR6261, HEK293F medium
74H9 = assay: ELISA, coated CR6261, HEK293F medium
113E7 = assay: ELISA, coated CR6261, HEK293F medium
220C9 = assay: ELISA, coated CR6261, HEK293F medium
71C4 = assay: ELISA, coated CR6261, HEK293F medium
71H2 = assay: ELISA, coated CR6261, HEK293F medium
7A7 [3] = assay: ELISA signal over HTRF expression signal, P. pastoris
76D10 = assay: as above
74D7 = assay: as above
36H2 = assay: as above
6A1 = assay: as above
36E4 = assay: as above
55G7 = assay: as above
86G2 = assay: as above
88C5 = assay: as above
55H2 = assay: as above
61A9 = assay: as above
1F2 = assay: as above
84D3 = assay: as above
78F11 = assay: as above
69D2 = assay: as above
8D7 = assay: as above
27B10 = assay: as above
71D3 = assay: as above
91F10 = assay: as above
48B11 = assay: as above
86F1 = assay: as above
56F4 = assay: as above
s74H9 = assay: apparent Kd (Kd^app), purified polypeptide; method not stated
s6E12 = assay: as above
[4] = target: T1, H1-mini2-cluster1+5+6-GCN4 without …; assay: ELISA, coated CR6261, P. pastoris medium; average of the parental

B1: CR6261 (antibody, V domains shown)
VH: EVQLVESGAEVKKPGSSVKVSCKASGGPFRSYAISWVRQAPGQGPEWMGGIIPIFGTTKYAPKFQGRVTITADDFAGTVYMELSSLRSEDTAMYYCAKHMGYQVRETMDVWGKGTTVTVSS
VL: QSVLTQPPSVSAAPGQKVTISCSGSSSNIGNDYVSWYQQLPGTAPKLLIYDNNKRPSGIPDRFSGSKSGTSATLGITGLQTGDEANYYCATWDRRPTAYVVFGGGTKLTVLG
ratio (binding signal/HTRF signal) [1]: 17.4
CR6261 binding signal (7A7 [2]): 6.19e+06
CR6261 binding signal (86B4): 2e+07
CR6261 binding signal (6E12): 1.53e+07
CR6261 binding signal (115A1): 9.56e+06
CR6261 binding signal (181H9): 1.19e+07
CR6261 binding signal (171E5): 6.63e+06
CR6261 binding signal (91C4): 8.44e+06
CR6261 binding signal (127H1): 2.42e+07
CR6261 binding signal (131B5): 5.73e+06
CR6261 binding signal (74H9): 2.61e+07
CR6261 binding signal (113E7): 1.3e+07
CR6261 binding signal (220C9): 8.49e+06
CR6261 binding signal (71C4): 6.41e+06
CR6261 binding signal (71H2): 2.11e+07
fold increase of ratio over parental SEQ ID NO: 6 (7A7 [3]): 12.4
ratio (binding signal/HTRF signal) (7A7 [3]): 73.4
fold increase of ratio over parental SEQ ID NO: 6 (76D10): 1.97
ratio (binding signal/HTRF signal) (76D10): 11.7
fold increase of ratio over parental SEQ ID NO: 6 (74D7): 3.27
ratio (binding signal/HTRF signal) (74D7): 19.4
fold increase of ratio over parental SEQ ID NO: 6 (36H2): 1.95
ratio (binding signal/HTRF signal) (36H2): 11.6
fold increase of ratio over parental SEQ ID NO: 6 (6A1): 4.63
ratio (binding signal/HTRF signal) (6A1): 27.5
fold increase of ratio over parental SEQ ID NO: 6 (36E4): 2.07
ratio (binding signal/HTRF signal) (36E4): 12.3
fold increase of ratio over parental SEQ ID NO: 6 (55G7): 11.8
ratio (binding signal/HTRF signal) (55G7): 70.3
fold increase of ratio over parental SEQ ID NO: 6 (86G2): 1.93
ratio (binding signal/HTRF signal) (86G2): 11.5
fold increase of ratio over parental SEQ ID NO: 6 (88C5): 5.94
ratio (binding signal/HTRF signal) (88C5): 35.3
fold increase of ratio over parental SEQ ID NO: 6 (55H2): 3.28
ratio (binding signal/HTRF signal) (55H2): 19.5
fold increase of ratio over parental SEQ ID NO: 6 (61A9): 5.94
ratio (binding signal/HTRF signal) (61A9): 35.3
fold increase of ratio over parental SEQ ID NO: 6 (1F2): 2.04
ratio (binding signal/HTRF signal) (1F2): 12.1
fold increase of ratio over parental SEQ ID NO: 6 (84D3): 4.87
ratio (binding signal/HTRF signal) (84D3): 28.9
fold increase of ratio over parental SEQ ID NO: 6 (78F11): 3.41
ratio (binding signal/HTRF signal) (78F11): 20.2
fold increase of ratio over parental SEQ ID NO: 6 (69D2): 2.19
ratio (binding signal/HTRF signal) (69D2): 13
fold increase of ratio over parental SEQ ID NO: 6 (8D7): 1.69
ratio (binding signal/HTRF signal) (8D7): 10
fold increase of ratio over parental SEQ ID NO: 6 (27B10): 2.75
ratio (binding signal/HTRF signal) (27B10): 16.3
fold increase of ratio over parental SEQ ID NO: 6 (71D3): 5.67
ratio (binding signal/HTRF signal) (71D3): 33.7
fold increase of ratio over parental SEQ ID NO: 6 (91F10): 1.78
ratio (binding signal/HTRF signal) (91F10): 10.6
fold increase of ratio over parental SEQ ID NO: 6 (48B11): 3.41
ratio (binding signal/HTRF signal) (48B11): 20.3
fold increase of ratio over parental SEQ ID NO: 6 (86F1): 2.92
ratio (binding signal/HTRF signal) (86F1): 17.4
fold increase of ratio over parental SEQ ID NO: 6 (56F4): 3.21
ratio (binding signal/HTRF signal) (56F4): 19.1
Kd (s74H9): 130 nM
Kd (s6E12): 390 nM
CR6261 binding signal [4]: 238000
